Source: US8642555B2, “Prodrugs” (KTB Tumorforschungsgesellschaft mbH, priority 2009, dated 2014)
Numbered stars: 1 amine (or outer) side, 2 acyl side, 3 side chain; on linkers, the order of the positions; unused ones are H or OH. Square brackets hold non-standard residues; d marks the D form. Peptide text beside a SMILES is read from it. * marks the point of attachment. ξ: configuration not given here. X1 = COc1cccc2c1C(=O)c1c(O)c3c(c(O)c1C2=O)C[C@@](O)(C(=O)CO)CC3O[C@H]1C[C@@H](N*)C(O)[C@H](C)O1; Hexanoyl(6-maleimido) = O=C1C=CC(=O)N1CCCCCC(=O)*; PABC = O=C(OCc1ccc(N[*:1])cc1)[*:2]; ξY = NC(Cc1ccc(O)cc1)C(=O)O; ξR = N=C(N)NCCCC(N)C(=O)O; ξL = CC(C)CC(N)C(=O)O; ξS = NC(CO)C(=O)O

Assays:
[1] = cited from earlier work
[2] = Water-solubility
[3] = in vivo; cited from earlier work

Compound | water-solubility [2] | further results
COc1cccc2c1C(=O)c1c(O)c3c(c(O)c1C2=O)CC(O)(C(=O)CO)CC3OC1CC(NC(=O)C(CCCNC(=N)N)NC(=O)C(N)CO)C(O)C(C)O1 (stereo not drawn) [Ser-Arg-DOXO] | – | half-life of liberation of free doxorubicin from the dipeptide [1]: > 48 h
COc1cccc2c1C(=O)c1c(O)c3c(c(O)c1C2=O)C[C@@](O)(C(=O)CO)CC3O[C@H]1C[C@@H](NC(=O)OCc2ccc(NC(=O)C(CC(C)C)NC(=O)C(CO)NC(=O)C(Cc3ccc(O)cc3)NC(=O)C(Cc3ccc(O)cc3)NC(=O)C(CO)NC(=O)C(CO)NC(=O)C(CCCNC(=N)N)NC(=O)CCCCCN3C(=O)C=CC3=O)cc2)C(O)[C@H](C)O1 (stereo partly drawn) [compound 6, EMC-Arg-Ser-Ser-Tyr-Tyr-Ser-Leu-PABC-DOXO] ({Hexanoyl(6-maleimido)}-[ξR][ξS][ξS][ξY][ξY][ξS][ξL][PABC]-X1) | excellent water-solubility | –
CC(=O)O[C@H]1C(=O)[C@@]2(C)C([C@H](OC(=O)c3ccccc3)[C@]3(O)C[C@H](OC(=O)[C@H](OC(=O)OCc4ccc(NC(=O)C(CC(C)C)NC(=O)C(CO)NC(=O)C(Cc5ccc(O)cc5)NC(=O)C(Cc5ccc(O)cc5)NC(=O)C(CO)NC(=O)C(CO)NC(=O)C(CCCNC(=N)N)NC(=O)CCCCCN5C(=O)C=CC5=O)cc4)[C@@H](NC(=O)c4ccccc4)c4ccccc4)C(C)=C1C3(C)C)[C@]1(OC(C)=O)CO[C@@H]1C[C@@H]2O (stereo partly drawn) [compound 10, EMC-Arg-Ser-Ser-Tyr-Tyr-Ser-Leu-PABC-Paclitaxel] | excellent water-solubility | –
albumin | – | half-life in the systemic circulation [3]: up to 19 days
